Test results as given in patent US20070004636A1, “Method of degrading transcriptional factors of saccharometabolism-associated gene, method for inhibiting the degradation, and agent for inhibiting degradation and degradation inhibitor” (priority 2002, published 2007).

Key:
human HNF-1α = assay: in vitro protein degradation test of HNF-1α by calpain (Western blotting); type: biochemical; settings: 1 hour at 37° C.
Method: Using the HNF-1α expression plasmid, in vitro synthesis of HNF-1α protein was carried out using the TNT T7 Quick Coupled Transcription/Translation System. That is, the HNF-1α expression plasmid was mixed with TNT T7 Quick Master Mix, and then incubated for 1.5 hours at 30° C. in the presence of methionine to synthesize HNF-1α. Thereafter, immunoprecipitation was conducted by adding anti-Xpress antibody to the synthesized HNF-1α, mixing by inversion for 1 hour at 4° C., and then adding Protein G Sepharose 4 Fast Flow and mixing by inversion for an additional 1 hour at 4° C. Subsequently, Protein G Sepharose was collected by centrifugation and washed 3 times with washing buffer (50 mM Tris-HCl, pH 7.5/150 mM NaCl/0.2% Nonidet P-40), followed by rinsing with 200 mM Tris-HCl (pH 7.8) to obtain the HNF-1α sample as 20% slurry (hereunder, referred to as “HNF-1α slurry”).
Protein degradation tests were carried out in vitro by adding μ-calpain or m-calpain to the HNF-1α slurry, and incubating for 1 hour at 37° C. in the presence of 200 mM Tris-HCl (pH 7.8)/1 mM DTT/6 mM CaCl2. The final concentrations of the respective calpain in the reaction system were as follows: 50 units/mL of human μ-calpain; 50 μg/mL of rabbit m-calpain as a protein concentration; and 59 units/mL of rat m-calpain. For a control experiment, an HNF-1α slurry was incubated without the addition of calpain in a similar manner in the presence of calcium. Further, to test for protein degradation in the absence of calcium, a sample was prepared by adding 10 mM of EDTA instead of 6 mM of CaCl2 and was incubated in the same manner. The samples after incubation were added to an equal volume of 2×SDS sample buffer, heated for 5 minutes, and then subjected to 5-20% SDS-PAGE for separation. Thereafter, Western blotting was carried out to detect HNF-1α using anti-Omni/M21 antibody (Santa Cruz Biotechnology, Inc.), which recognizes a His-Xpress region, and anti-HNF-1α antibody/HNF-1α (C-19) antibody (Santa Cruz Biotechnology, Inc.). An ECL Western blotting detection kit was used for conducting the detection.
In-vitro protein degradation tests were carried out in the same manner as in Example 7, but the lysate of sf-9 cells that coexpressed m-calpain with calpain small subunit 1 was used as m-calpain. The final concentration of the lysate of the sf-9 cells that expressed these proteins in the reaction system was 1.75 mg/mL as a protein concentration. The final concentration of rat m-calpain in the reaction system was 59 units/mL. Detection of HNF-1α was performed in the same manner as Example 7, but only anti-HNF-1α antibody/HNF-1α (C-19) antibody was used.

human HNF-4α = molecular target: T1, human HNF-4α (Homo sapiens, UniProt P41235); assay: binding test by intracellular coexpression/immunoprecipitation in HEK293T cells; type: cell-based; settings: FLAG-tagged m-calpain coexpressed with Xpress-tagged HNF-4α in HEK293T cells
T1 construct: expressed in transfected cells; host or cells: HEK293T
T1 sequence (P41235 10-474): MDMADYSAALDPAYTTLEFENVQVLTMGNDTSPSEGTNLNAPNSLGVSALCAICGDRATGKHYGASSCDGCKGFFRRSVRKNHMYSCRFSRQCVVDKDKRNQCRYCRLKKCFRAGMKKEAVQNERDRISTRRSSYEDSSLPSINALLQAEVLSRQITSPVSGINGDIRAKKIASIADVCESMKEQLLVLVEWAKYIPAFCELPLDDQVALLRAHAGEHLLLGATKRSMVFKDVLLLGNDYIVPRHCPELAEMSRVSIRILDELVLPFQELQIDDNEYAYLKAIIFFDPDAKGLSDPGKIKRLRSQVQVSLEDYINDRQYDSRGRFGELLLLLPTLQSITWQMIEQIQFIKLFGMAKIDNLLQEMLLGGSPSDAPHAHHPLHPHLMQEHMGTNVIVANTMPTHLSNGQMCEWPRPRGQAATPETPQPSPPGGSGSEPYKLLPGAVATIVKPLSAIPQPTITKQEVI
Method: First, the m-calpain gene was co-transfected with the HNF-4α gene into HEK293T cells. More specifically, after culturing a total number of 1.3×10^6 HEK293T cells for 4 hours at 37° C. in the presence of 5% CO2 (Petri dish with 60 mm diameter), 5 μg of HNF4α expression plasmid or pcDNA 3.1/His plasmid as a negative control was transfected thereto together with 5 μg of m-calpain expression plasmid using the FuGENE 6 Transfection Reagent (Roche Applied Science). After two days culturing, the cells were washed with cold phosphate buffered saline (−) (hereunder, referred to as “PBS(−)”), suspended in 500 μl of cell lysis buffer (20 mM HEPES, pH 7.5/150 mM NaCl/1 mM EDTA/1% Triton X-100/1 mM phenylmethyl sulfonyl fluoride (PMSF)), and left to stand on ice for 20 mins. Thereafter, the cells were subjected to centrifugation at 15,000 rpm for 20 min at 4° C. to collect the supernatant for use as cell lysate. Subsequently, the collected lysate was added to 18 μl of Protein G Sepharose 4 Fast Flow (Amersham Pharmacia Biotech) that was pretreated with TBS (pH 8.0) containing 0.1% bovine serum albumin, and mixed by inversion for 2 hours at 4° C., followed by centrifugation to collect the supernatant. 0.6 μg of anti-HNF-4α antibody/HNF-4α (C-19) antibody was added to the collected supernatant, and mixed by inversion for 1 hour at 4° C. […]

B1: human m-calpain: lysate of sf-9 insect cells coexpressing human m-calpain with calpain small subunit 1; FLAG-tagged, expressed in HEK293T cells, in Example 3 (protein, UniProt P17655 20-700; P04632 1-268, looked up)
Calpain-2 catalytic subunit: SHDRAIKYLNQDYEALRNECLEAGTLFQDPSFPAIPSALGFKELGPYSSKTRGIEWKRPTEICADPQFIIGGATRTDICQGALGDCWLLAAIASLTLNEEILARVVPLNQSFQENYAGIFHFQFWQYGEWVEVVVDDRLPTKDGELLFVHSAEGSEFWSALLEKAYAKINGCYEALSGGATTEGFEDFTGGIAEWYELKKPPPNLFKIIQKALQKGSLLGCSIDITSAADSEAITFQKLVKGHAYSVTGAEEVESNGSLQKLIRIRNPWGEVEWTGRWNDNCPSWNTIDPEERERLTRRHEDGEFWMSFSDFLRHYSRLEICNLTPDTLTSDTYKKWKLTKMDGNWRRGSTAGGCRNYPNTFWMNPQYLIKLEEEDEDEEDGESGCTFLVGLIQKHRRRQRKMGEDMHTIGFGIYEVPEELSGQTNIHLSKNFFLTNRARERSDTFINLREVLNRFKLPPGEYILVPSTFEPNKDGDFCIRVFSEKKADYQAVDDEIEANLEEFDISEDDIDDGFRRLFAQLAGEDAEISAFELQTILRRVLAKRQDIKSDGFSIETCKIMVDMLDSDGSGKLGLKEFYILWTKIQKYQKIYREIDVDRSGTMNSYEMRKALEEAGFKMPCQLHQVIVARFADDQLIIDFDNFVRCLVRLETLFKIFKQLDPENTGTIELDLISWLCFSVL
Calpain small subunit 1: MFLVNSFLKGGGGGGGGGGGLGGGLGNVLGGLISGAGGGGGGGGGGGGGGGGGGGGTAMRILGGVISAISEAAAQYNPEPPPPRTHYSNIEANESEEVRQFRRLFAQLAGDDMEVSATELMNILNKVVTRHPDLKTDGFGIDTCRSMVAVMDSDTTGKLGFEEFKYLWNNIKRWQAIYKQFDTDRSGTICSSELPGAFEAAGFHLNEHLYNMIIRRYSDESGNMDFDNFISCLVRLDAMFRAFKSLDKDGTGQIQVNIQEWLQLTMYS
modifications: FLAG tag
degradation of HNF-1α (human HNF-1α; in the absence of calcium (10 mM EDTA instead of CaCl2)): not observed
degradation of HNF-1α (human HNF-1α; in the presence of calcium (6 mM CaCl2), Western blotting): observed
binding to HNF-4α (coprecipitation with anti-HNF-4α antibody) (human HNF-4α): coprecipitated
